These results are taken from paper PMC9209732, “Transcriptional Regulation of ING5 and its Suppressive Effects on Gastric Cancer”.

For the data set, the target named is YY1 (UniProt P25490 1-414). The data set is described as follows: EMSA; EMSA: 5-10 ug protein, 50 nM probe, 5% non-denaturing PAGE, streptavidin-HRP/ECL; buffer, salt, pH and temperature not stated. The conditions noted are these: protein: recombinant; tags: His (GST also stated in Results); label: 3' biotin; blunt. (In general: Mobility shift assays separate free from complexed probe on a gel.)
Chain of YY1 (P25490 whole entry): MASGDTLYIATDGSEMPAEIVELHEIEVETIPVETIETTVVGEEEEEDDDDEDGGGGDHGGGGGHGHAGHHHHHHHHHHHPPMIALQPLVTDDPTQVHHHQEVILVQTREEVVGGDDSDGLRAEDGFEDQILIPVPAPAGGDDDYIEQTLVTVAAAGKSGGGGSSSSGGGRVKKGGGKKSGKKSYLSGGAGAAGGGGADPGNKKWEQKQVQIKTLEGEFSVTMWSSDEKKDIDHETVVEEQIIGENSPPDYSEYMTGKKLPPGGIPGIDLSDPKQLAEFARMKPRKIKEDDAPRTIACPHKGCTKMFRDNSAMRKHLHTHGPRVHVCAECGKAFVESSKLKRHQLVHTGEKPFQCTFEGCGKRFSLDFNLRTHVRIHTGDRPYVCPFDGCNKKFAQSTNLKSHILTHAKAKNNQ

B1: ING5 promoter probe (-48 to 25) (dsDNA)
DNA 1: CGCTGGCACCGCCCCGCCCCCGCCTCCCGCGGCACCGCCCGCCCGCGCAGACCCCGAGCGCGGCCGCGGACGAA
DNA 2: TTCGTCCGCGGCCGCGCTCGGGGTCTGCGCGGGCGGGCGGTGCCGCGGGAGGCGGGGGCGGGGCGGTGCCAGCG
Consider B1, for which the binding result was “binds”.
